Test [1] addresses 16C3 antigen (human colorectal and pancreatic carcinoma-associated antigen, CPAA, recognized by the 16C3 antibody) (human). The experiment in a line: FACS, CFPAC-1 pancreatic cells. On the technique in general: Flow cytometry measures light scatter and fluorescence of single cells or particles in a stream.
Test [2] shares this target. The test is described as follows: FACS, AsPC-1 cells, 5 uL.
The target is the same in test [3]. The experiment in a line: FACS, AsPC-1 cells, 1 ug antibody.
Test [4] shares this target. The test is described as follows: FACS, AsPC-1 cells, 20 ng antibody.
Test [5] has the same target. The experiment in a line: FACS, AsPC-1 pancreatic cells.
For test [6] the target is unchanged. The experiment in a line: FACS, LS174T colorectal cells.
Test [7] shares this target. The test is described as follows: FACS, AsPC-1 cells, 100 ng antibody.
Test [8] shares this target. The experiment in a line: FACS, AsPC-1 cells, 0.8 ng antibody.
The target is the same in test [9]. The experiment in a line: FACS, HT-29 colorectal cells.
The target is the same in test [10]. The experiment in a line: FACS, AsPC-1 cells, 4 ng antibody.
Test [11] has the same target. The experiment in a line: FACS, AsPC-1 pancreatic cells, secondary antibody only.
For test [12] the target is unchanged. The experiment in a line: FACS, AsPC-1 cells, secondary antibody only.
For test [13] the target is unchanged. The test is described as follows: FACS, LS174T colorectal cells, secondary antibody only.
For test [14] the target is unchanged. The experiment in a line: FACS, CFPAC-1 pancreatic cells, secondary antibody only.
Test [15] has the same target. The test is described as follows: FACS, HT-29 colorectal cells, secondary antibody only.
Test [16] shares this target. The test is described as follows: FACS, LS174T cells, secondary antibody only.
Test [17] shares this target. The experiment in a line: FACS, CFPAC-1 cells, secondary antibody only.

Consider “16C3 mAb (murine monoclonal antibody, IgG1 heavy chain, kappa light chain)”, for which the % Cell Staining in [1] came to 96.2%; in test [5] it was 69.9%; in test [6], 40.6%; in test [9], 91%. Besides, the mfi in [1] was 323 mfi; in test [2], 34 mfi; in test [3], 138 mfi; in test [5], 36 mfi; in test [6] it was 59 mfi; in [9], 78 mfi. In addition, the % AsPC-1 Cells Stained worked out at 81.4% in test [2] and 89.5% in test [3]. Moreover, the % AsPC-1 tumor cell binding stood at 47.9% in test [4], 61.7% in test [7], 1.28% in test [8] and 4.26% in test [10]. For the same substance, the MFI amounted to 69 MFI in [4], 228 MFI in test [7], 615 MFI in test [8] and 52 MFI in test [10].

For the substance “Goat anti-Mouse IgG-FITC control (fluorescein-labelled goat anti-mouse antibody, secondary reagent alone)”, in test [11], the % Cell Staining came out at 2.68% and the mfi was determined as 30 mfi. In test [12], this substance yielded a % AsPC-1 Cells Stained of 1.01%, a % AsPC-1 tumor cell binding of 1.55%, an MFI of 70 MFI and a mfi of 8 mfi. In test [13], this substance showed a % Cell Staining of 0.94% and a mfi of 15 mfi. In [14], this substance gave a % Cell Staining of 0.83% and a mfi of 14 mfi. In [15], this substance displayed a % Cell Staining of 0.84% and a mfi of 10 mfi. In addition, in test [16], the % LS174T tumor cell binding came out at 1.63% and the MFI was determined as 43 MFI.

In test [17], “Rabbit anti-Human IgG-FITC control (secondary reagent alone) (antibody)” returned a % binding to CFPAC-1 cells of 2.1% and a mfi of 20 mfi. Besides, in test [12], the % AsPC-1 tumor cell binding turned out to be 2.05% and the MFI amounted to 59 MFI. In test [16], this substance came in with a % binding to LS174T cells of 3.49% and a mfi of 33 mfi.

The record behind these values is patent publication US20180346594A1.
